Numbering of substitutions follows the chain as printed. Numbers in names are those of the source.
Legend:
Assay type in all cases: biochemical, Auricularia auricula-judae
[1] = substrate: Nc1c(N=Nc2ccc(S(=O)(=O)CCOS(=O)(=O)O)cc2)c(S(=O)(=O)O)cc2cc(S(=O)(=O)O)c(N=Nc3ccc(S(=O)(=O)CCOS(=O)(=O)O)cc3)c(O)c12; experiment: steady-state kinetics, absorbance decrease, Michaelis-Menten fit; details: single set of constants, 0.1 mM H2O2, 10 nM enzyme, 0.1 M tartrate pH 3, 25°C, pH 3.0
Description: (§1) steady-state kinetics, absorbance decrease, Michaelis-Menten fit on DyP (dye-decolorizing peroxidase; mature DyP-I) of Auricularia auricula-judae

[2] = substrate: Nc1c(S(=O)(=O)O)cc(Nc2cccc(S(=O)(=O)CCOS(=O)(=O)O)c2)c2c1C(=O)c1ccccc1C2=O; experiment: as above; details: 0.1 mM H2O2, 10 nM enzyme, 0.1 M tartrate pH 3.5, 25°C
Description: as §1

[3] = substrate: COc1cccc(OC)c1O; experiment: steady-state kinetics, absorbance increase, Michaelis-Menten fit; details: 0.1 mM H2O2, 10 nM enzyme, 0.1 M tartrate pH 3, 25°C
Description: (§2) steady-state kinetics, absorbance increase, Michaelis-Menten fit on DyP (dye-decolorizing peroxidase; mature DyP-I) of Auricularia auricula-judae

[4] = substrate: CCn1c(=NN=c2sc3cc(S(=O)(=O)O)ccc3n2CC)sc2cc(S(=O)(=O)O)ccc21; experiment: as above; details: 0.1 mM H2O2, 10 nM enzyme, 0.1 M tartrate pH 3, 25°C
Description: as §2

[5] = substrate: COc1ccc(CO)cc1OC; experiment: as above; details: single set of constants, 0.1 mM H2O2, 100 nM enzyme, 0.1 M tartrate pH 2.5, 25°C, pH 2.5
Description: as §2

[6] = single set (high-turnover site, haem channel blocked), pH 3.5
[7] = two-site kinetics: high-affinity low-turnover site
[8] = single set (high-turnover site)
[9] = two-site kinetics: high-affinity low-turnover site, pH 3.5
[10] = single set (low-turnover site), pH 3.5
[11] = single set (low-turnover site), pH 3.0
[12] = two-site kinetics: high-affinity low-turnover site, pH 3.0

B1: DyP (dye-decolorizing peroxidase; mature DyP-I) of Auricularia auricula-judae (Auricularia auricula-judae; G230L) (protein)
chain: ATSLNTDDIQGDILVGMHKQKQLFYFFAINDPATFKTHLASDIAPVVASVTQLSNVATQPLVALNIAFSNTGLLALGVTDNLGDSLFANGQAKDATSFKESTSSWVPQFAGTGIHGVIILASDTTDLIDQQVASIESTFGSSISKLYSLSASIRPGNEAGHEMFGFLDLIAQPAINGFNTPLPGQNIVDAGVIITGATNDPITRPSWAVGGSFLAFRQLEQLVPEFNKYLLDNAPAGSGSLQARADLLGARMVGRWKSGAPIDLTPTADDPALGADAQRNNNFTYSHAGFDLGSDQSHCPFSAHIRKTRPRADLGGSLTPPNLSAGANSIMRSGIPYGPEVTSAESASNTTTQERGLAFVAYQAQLSQGFHFLQQTWADNANFPPGKTPATVGLDPIIGQNNGQPRVVNGLLPSNSSASLSIPQFVVSHGGEYFFSPPISAIGGRLSA
notes: variants made on the same plasmid
[1]
  Km: 5.8 ± 0.6 µM
  kcat: 1.2 ± 0.1 s⁻¹
  kcat/Km: 217000 ± 13000 M⁻¹ s⁻¹
[2]; [6]
  Km: 10 ± 3 µM
  kcat: 106 ± 9 s⁻¹
  kcat/Km: 1.24e+07 ± 3e+06 M⁻¹ s⁻¹
[3]; [7]
  Km: 6.0 ± 0.4 µM
  kcat: 9.9 ± 0.2 s⁻¹
  kcat/Km: 1.6e+06 ± 70000 M⁻¹ s⁻¹
[4]; [8]
  Km: 25 ± 2 µM
  kcat: 96 ± 2 s⁻¹
  kcat/Km: 3.77e+06 ± 270000 M⁻¹ s⁻¹

B2: DyP (dye-decolorizing peroxidase; mature DyP-I) of Auricularia auricula-judae (Auricularia auricula-judae) (protein)
chain: B1 chain with L169G
notes: as for B1
[1]
  Km: 15.6 ± 2.0 µM
  kcat: 4.8 ± 0.2 s⁻¹
  kcat/Km: 310000 ± 20000 M⁻¹ s⁻¹
[2]; [9]
  Km: 14.0 ± 2.0 µM
  kcat: 32.0 ± 3.0 s⁻¹
  kcat/Km: 2.23e+06 ± 200000 M⁻¹ s⁻¹
[3]; [7]
  Km: 6.0 ± 0.5 µM
  kcat: 8.0 ± 0.2 s⁻¹
  kcat/Km: 1.35e+06 ± 100000 M⁻¹ s⁻¹
[4]; [7]
  Km: 3.1 ± 1.1 µM
  kcat: 7.4 ± 1.4 s⁻¹
  kcat/Km: 2.37e+06 ± 420000 M⁻¹ s⁻¹

B3: DyP (dye-decolorizing peroxidase; mature DyP-I) of Auricularia auricula-judae (Auricularia auricula-judae; Y398S) (protein)
chain: B1 chain with L169G, Y337S
notes: as for B1
[2]; [7]
  Km: 7.4 ± 2.3 µM
  kcat: 26.0 ± 1.9 s⁻¹
  kcat/Km: 3.37e+06 ± 350000 M⁻¹ s⁻¹

B4: DyP (dye-decolorizing peroxidase; mature DyP-I) of Auricularia auricula-judae (Auricularia auricula-judae; W438S) (protein)
chain: B1 chain with L169G, W377S
notes: as for B1
[1]
  Km: 10.6 ± 1.0 µM
  kcat: 0.70 ± 0.02 s⁻¹
  kcat/Km: 68000 ± 4000 M⁻¹ s⁻¹
[2]; [10]
  Km: 3.9 ± 0.6 µM
  kcat: 8.9 ± 0.6 s⁻¹
  kcat/Km: 2.24e+06 ± 240000 M⁻¹ s⁻¹
[3]; [11]
  Km: 3560 ± 250 µM
  kcat: 6.4 ± 0.1 s⁻¹
  kcat/Km: 1800 ± 100 M⁻¹ s⁻¹
[4]; [12]
  Km: 30.0 ± 0.5 µM
  kcat: 14.0 ± 1.0 s⁻¹
  kcat/Km: 472000 ± 61000 M⁻¹ s⁻¹
[5]
  Km: 7360 ± 1270 µM
  kcat: 0.23 ± 0.01 s⁻¹
  kcat/Km: 32 ± 3 M⁻¹ s⁻¹

Reference: PMC4357238, “Catalytic surface radical in dye-decolorizing peroxidase: a computational, spectroscopic and site-directed mutagenesis study” (Biochemical Journal, 2015)
